Laboratory results reported in patent US20240409629A1 (CHIA TAI TIANQING PHARMACEUTICAL GROUP, published 2024).
Read-outs that look alike come from different tables or passages of the source.

Key:
human CLDN18.1 [1] = target: T1, human CLDN18.1 (human, UniProt P56856 1-261); assay: FACS, U2OS-CLDN18.1 cells, antibody at 200 nM
T1 construct: also called claudin18.1
Description: (§1) Based on the FACS method, the binding activity of anti-CLDN18.2 antibodies for the cell line U2OS-CLDN18.1 overexpressing CLDN18.1 (SEQ ID NO: 2) was analyzed. The cell concentration was adjusted with PBS, and the U2OS-CLDN18.1 cells were added to a 96-well plate at 3×10⁵ cells/well, then the test antibodies were added to each well of the 96-well plate, the final concentration of the antibody was 200 nM, and the mixture was incubated at 4° C. for 60 min. The supernatant was discarded, the cells were washed 3 times with pre-cooled PBS buffer, PE-Goat Anti-Human IgG Fcγ (Jackson immunoresearch, Cat. No. 109-116-170) diluted at 1:200 was added at 100 μL/well, and the mixture was incubated at 4° C. for 30 min. Cells were washed 3 times with pre-cooled PBS buffer and resuspended in 100 μL of PBS buffer, and then the fluorescence signals were detected using a flow cytometer (Sartorius, iQUE3). The nonspecific binding of the anti-CLDN18.2 antibodies for U2OS-CLDN18.1 cells was measured by mean fluorescence intensity (MFI) of staining. The IgG1 isotype control antibody (prepared in-house, with the heavy and light chain amino acid sequences as set forth in SEQ ID NOs: 67 and 68 in the present disclosure) was used as the control, and 2-fold the IgG1 isotype control antibody was used as the benchmark, thus determining the presence or absence of nonspecific binding.

human CLDN18.2 [2] = target: human CLDN18.2 (human); assay: cell-based or functional assay
human CLDN18.2 [3] = target: T2, human CLDN18.2 (human); assay: FACS, NUGC-4 cells (natural CLDN18.2)
T2 construct: also called claudin18.2
Description: (§2) Based on the FACS method, the binding activity of anti-CLDN18.2 antibodies for the cell line U2OS-CLDN18.2 overexpressing CLDN18.2 and the cell lines KATOIII (Cell Bank of the Chinese Academy of Sciences) and NUGC-4 (Cell Bank of the Chinese Academy of Sciences) naturally expressing CLDN18.2 was analyzed.
(§3) The cell concentration was adjusted with PBS, and cells (U2OS-CLDN18.2, KATOIII, or NUGC-4 cells) were added to a 96-well plate at 3×10⁵ cells/well, then the test antibodies at different concentrations were added to each well of the 96-well plate, and the mixture was incubated at 4° C. for 60 min. […] The supernatant was discarded, the cells were washed 3 times with pre-cooled PBS buffer, PE-Goat Anti-Human IgG Fcγ (Jackson immunoresearch, Cat. No. 109-116-170) diluted at 1:200 was added at 100 μL/well, and the mixture was incubated at 4° C. for 30 min. Cells were washed 3 times with pre-cooled PBS buffer and resuspended in 100 μL of PBS buffer, and then the fluorescence signals were detected using a flow cytometer (Sartorius, iQUE3). The binding ability of the anti-CLDN18.2 antibodies for CLDN18.2 was measured by mean fluorescence intensity (MFI) of staining.

human CLDN18.1 [4] = target: T1, human CLDN18.1; assay: FACS, U2OS-CLDN18.1 cells; MFI against 2-fold the IgG1 isotype control
Description: as §1

human CLDN18.2 [5] = target: T2, human CLDN18.2; assay: FACS, U2OS-CLDN18.2 cells
Description: as §2, §3

human CLDN18.2 [6] = target: T2, human CLDN18.2; assay: FACS, KATOIII cells (natural CLDN18.2)
Description: as §2, §3

human CLDN18.2 [7] = target: T2, human CLDN18.2; assay: cell-based or functional assay; remark: listed apart in the source
human CLDN18.2 [8] = target: T2, human CLDN18.2; assay: cell-based or functional assay; remark: listed apart in the source
human CLDN18.2 [9] = target: T2, human CLDN18.2; assay: FACS, NUGC-4 cells (natural CLDN18.2); remark: listed apart in the source
Description: (§4) Based on the FACS method, the binding activity of anti-CLDN18.2 humanized antibodies for the cell lines KATOIII (Cell Bank of the Chinese Academy of Sciences) and NUGC-4 (Cell Bank of the Chinese Academy of Sciences) naturally expressing CLDN18.2 was analyzed. […] See Example 3 for the specific method.

human CLDN18.2 [10] = target: T2, human CLDN18.2; assay: cell-based or functional assay; remark: listed apart in the source
human CLDN18.2 [11] = target: T2, human CLDN18.2; assay: cell-based or functional assay; remark: listed apart in the source
human CLDN18.2 [12] = target: T2, human CLDN18.2; assay: cell-based or functional assay; remark: listed apart in the source
human CLDN18.2 [13] = target: T2, human CLDN18.2; assay: FACS, KATOIII cells (natural CLDN18.2); remark: listed apart in the source
Description: as §4

| Binder | MFI (human CLDN18.1 [1]) | CDC EC50, U2OS-CLDN18.2 target cells (human CLDN18.2 [2]) [pM] | EC50 (human CLDN18.2 [3]) [pM] | binding result (human CLDN18.1 [4]) | EC50 (human CLDN18.2 [5]) [pM] | EC50 (human CLDN18.2 [6]) [pM] | CDC EC50, KATOIII target cells (human CLDN18.2 [2]) [pM] | ADCC EC50, PBMC effector cells, KATOIII target cells (human CLDN18.2 [7]) [pM] | ADCC EC50, PBMC effector cells, NIH-3T3-CLDN18.2 target cells (human CLDN18.2 [7]) [pM] | ADCC EC50, PBMC effector cells, NUGC-4 target cells (human CLDN18.2 [7]) [pM] | ADCC Maximum killing (%), PBMC effector cells, KATOIII target cells (human CLDN18.2 [7]) [%] | ADCC Maximum killing (%), PBMC effector cells, NIH-3T3-CLDN18.2 target cells (human CLDN18.2 [7]) [%] | ADCC Maximum killing (%), PBMC effector cells, NUGC-4 target cells (human CLDN18.2 [7]) [%] | ADCC EC50, PBMC effector cells, KATOIII target cells (human CLDN18.2 [8]) [pM] | ADCC EC50, PBMC effector cells, NUGC-4 target cells (human CLDN18.2 [8]) [pM] | EC50 (human CLDN18.2 [9]) [pM] | CDC EC50, NIH-3T3-CLDN18.2 target cells (human CLDN18.2 [10]) [pM] | ADCC EC50, Jurkat-CD16a v158-NFAT-luciferase effector cells, KATOIII target cells (human CLDN18.2 [11]) [pM] | ADCC EC50, Jurkat-CD16a v158-NFAT-luciferase effector cells, U2OS-CLDN18.2 target cells (human CLDN18.2 [11]) [pM] | EC50 (human CLDN18.2 [13]) [pM] | also measured |
| --- | --- | --- | --- | --- | --- | --- | --- | --- | --- | --- | --- | --- | --- | --- | --- | --- | --- | --- | --- | --- | --- |
| chimeric antibody xi10D8 (antibody, human IgG1, kappa, V domains shown, Mouse variable regions on human IgG1/kappa; defucosylated, expressed in FUT8-knockout CHO-S cells; also called chimeric 10D8) VH: QIQLAQSGPELKKPGETVKVSCKASGYTFKNYGMNWVKQAPGKGLKWMGWININTGEPRYAEEFKGRIAFSLETSASTAYLLINNLKNEDTATYFCARYGYGNSFPYWGQGTLVTVSA VL: DIVMTQSPSSLTVTVGEKVTMSCKSSQSLLNSGNQRNYLTWYQQKPGQPPKLLIYWASTRESGVPDRFTGSGSGTAFTLTVSSVQAEDLAVYYCQNDYSYPLTFGAGTKLEMKR | 8030 | 11400 | 512000 | no binding (tested: 200 nM) | 19500 | 13900 |  |  |  |  |  |  |  |  |  |  |  |  |  |  |  |
| chimeric antibody xi28G3 (antibody, human IgG1, kappa, V domains shown, Mouse variable regions on human IgG1/kappa; defucosylated, expressed in FUT8-knockout CHO-S cells; also called chimeric 28G3) VH: EIQLQQTGPELVKPGASVTISCKTSGYSFTDYLMLWVKQSHGKSLEWIGNINPYYGRTTYNLKFKGKATLTVDRSSSTAYMQLNSLTSEDSAVYYCARDGYSLRNAMDYWGQGTSVTVSS VL: DIVMTQSPYSLSVSTGEKVTMSCKSSQSLFNSGNQKNYLAWYQQKPGQPPKLLIYGASTRESGVPDRFTGSGSGTDFTLTISSVQAEDLALYYCQNAHSYPYTFGGGTKLEIKR | 7560 | 1580 | 21200 | no binding (tested: 200 nM) | 7780 | 3310 | 112 | 820 | 540 | 3260 | 29.9 | 47 | 22.5 | 38400 | 440 | 44100 | 270 | 43 | 18 | 6630 | ADCC Maximum killing (%), PBMC effector cells, KATOIII target cells (human CLDN18.2 [8]): 76.8%; ADCC Maximum killing (%), PBMC effector cells, NUGC-4 target cells (human CLDN18.2 [8]): 43.3%; ADCC EC50, Jurkat-CD16a v158-NFAT-luciferase effector cells, KATOIII target cells (human CLDN18.2 [12]): 30 pM; ADCC EC50, Jurkat-CD16a v158-NFAT-luciferase effector cells, NUGC-4 target cells (human CLDN18.2 [12]): 121 pM; ADCC EC50, Jurkat-CD16a v158-NFAT-luciferase effector cells, U2OS-CLDN18.2 target cells (human CLDN18.2 [12]): 28 pM |
| chimeric antibody xi22F12 (antibody, human IgG1, kappa, V domains shown, Mouse variable regions on human IgG1/kappa; defucosylated, expressed in FUT8-knockout CHO-S cells; also called chimeric 22F12) VH: QVQLKESGPGLVAPSQSLSITCTVSGFSLTSYGVYWVRQPPGKGLEWLGVIWAGGSTNYNSALMSRLSINKDNSKSQVFLKMNSLQTDDTAMYYCARDRGRLLSMDYWGQGTSVTVSS VL: DIVMTQSPSSLSVSAGEKVTMSCRSSQSLLNSGNQKNYLAWYQQKPGQPPKLLIYGASTRESGVPDRFTGSGSGTDFTLTIGSVQAEDLAVYYCQNVHFFPFTFGSGTKLEIKR | 8940 | 2090 | 20000 | no binding (tested: 200 nM) | 25100 | 3680 | 103 |  |  |  |  |  |  |  | 680 |  |  |  |  |  | ADCC Maximum killing (%), PBMC effector cells, NUGC-4 target cells (human CLDN18.2 [8]): 46.1%; ADCC EC50, Jurkat-CD16a v158-NFAT-luciferase effector cells, KATOIII target cells (human CLDN18.2 [12]): 20 pM; ADCC EC50, Jurkat-CD16a v158-NFAT-luciferase effector cells, NUGC-4 target cells (human CLDN18.2 [12]): 83 pM; ADCC EC50, Jurkat-CD16a v158-NFAT-luciferase effector cells, U2OS-CLDN18.2 target cells (human CLDN18.2 [12]): 20 pM |
| humanized antibody hz28G3-1.1 (antibody, human IgG1, kappa, V domains shown) VH: QVQLVQSGAEVKKPGASVKVSCKTSGYSFTDYLMLWVRQAPGQGLEWMGNINPYYGRTTYALKFKGRVTMTVDRSTSTVYMELSSLRSEDTAVYYCARDGYSLRNAMDYWGQGTLVTVSS VL: DIVMTQSPDSLAVSLGERATINCKSSQSLFNSGNQKNYLAWYQQKPGQPPKLLIYGASTRESGVPDRFSGSGSGTDFTLTISSLQAEDVAVYYCQNAHSYPYTFGQGTKVEIKR |  |  |  |  |  |  |  | 48 | 330 | 70 | 11.5 | 28.1 | 4.9 |  |  | 11100 | 290 | 139 | 16 | 8110 |  |
| 15F9 (antibody, human IgG1, kappa, V domains shown) VH: QVQLVQSGSELKKPGASVKVSCKASGYTFTNYGINWVRQAPGQGLEWMGWINPNTGETTYAEEFKGRFVFSLDTSVSTAYLQISSLKAEDTAVYFCARLYYGNRFDSWGQGTLVTVSS VL: DIVMTQSPDSLAVSLGERATINCKSSQSLLNSGNQRNYLTWYQQKPGQPPKLLIYWASTRESGVPDRFSGSGSGTDFTLTISSLQAEDVAVYYCQNAYYYPLTFGGGTKVEIKR |  |  |  |  |  |  |  | 30 | 180 | 300 | 10.6 | 22.6 | 4.34 | ~15.5 |  |  | 250 |  |  |  | ADCC Maximum killing (%), PBMC effector cells, KATOIII target cells (human CLDN18.2 [8]): 19.5% |
| humanized antibody hz28G3-1.3 (antibody, human IgG1, kappa, V domains shown) VH: QVQLVQSGAEVKKPGASVKVSCKTSGYSFTDYLMLWVRQAHGQSLEWMGNINPYYGRTTYALKFKGRVTMTVDRSTSTVYMELSSLRSEDTAVYYCARDGYSLRNAMDYWGQGTLVTVSS VL: DIVMTQSPDSLAVSLGERATINCKSSQSLFNSGNQKNYLAWYQQKPGQPPKLLIYGASTRESGVPDRFSGSGSGTDFTLTISSLQAEDVAVYYCQNAHSYPYTFGQGTKVEIKR |  |  |  |  |  |  |  | 1030 | 510 | 4600 | 25.3 | 44.3 | 19 |  |  | 10500 | 310 | 217 | 23 | 7010 |  |
